Source: doi:10.1101/2025.04.02.646914

Experiments:
Test in all cases: FP
MS2 coat protein N55D = MS2 coat protein N55D (bacteriophage MS2, UniProt P03612 2-130, N56D)
MS2 coat protein WT = MS2 coat protein WT (bacteriophage MS2, UniProt P03612 2-130)
MS2 coat protein W32A = MS2 coat protein W32A (bacteriophage MS2, UniProt P03612 2-130, W33A)

**Q.** Does CCUACAUGAGGAUUACCCAUGUU (structured_RNA) [5' fluoro MS2 SL] bind (MS2 coat protein N55D)?
**A.** no binding

**Q.** Does CCUACAUGAGGAUUACCCAUGUU (structured_RNA) [5' fluoro MS2 SL] bind (MS2 coat protein WT)?
**A.** binds

**Q.** Does CCUACAUGAGGAUUACCCAUGUU (structured_RNA) [5' fluoro MS2 SL] bind (MS2 coat protein W32A)?
**A.** no binding
